Reference: patent publication US20070244048A1 (published 2007)
Non-standard residues stand in square brackets, D forms with d. *: point of attachment. Succinimide(1-Et,3-yl) = CCN1C(=O)CC(*)C1=O

What was measured:
rat NMUR1-ATG [1] = biological target: T1, rat NMUR1-ATG (rat, UniProt Q9JJI5 1-425); test: cell-based or functional assay
T1 sequence (looked up): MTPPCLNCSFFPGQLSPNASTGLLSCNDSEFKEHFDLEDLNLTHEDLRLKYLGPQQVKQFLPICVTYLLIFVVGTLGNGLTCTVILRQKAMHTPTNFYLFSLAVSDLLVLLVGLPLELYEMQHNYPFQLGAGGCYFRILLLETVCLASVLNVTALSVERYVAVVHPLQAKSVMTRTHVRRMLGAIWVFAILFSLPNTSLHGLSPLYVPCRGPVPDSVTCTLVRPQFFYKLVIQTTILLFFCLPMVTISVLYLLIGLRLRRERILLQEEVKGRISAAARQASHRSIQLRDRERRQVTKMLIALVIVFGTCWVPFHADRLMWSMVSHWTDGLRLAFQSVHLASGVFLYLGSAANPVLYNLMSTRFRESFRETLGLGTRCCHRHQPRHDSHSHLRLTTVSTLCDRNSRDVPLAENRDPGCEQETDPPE

rat NMUR1-TTG [2] = biological target: T2, rat NMUR1-TTG (rat, UniProt Q9JJI5 1-425); test: cell-based or functional assay
T2 sequence (looked up): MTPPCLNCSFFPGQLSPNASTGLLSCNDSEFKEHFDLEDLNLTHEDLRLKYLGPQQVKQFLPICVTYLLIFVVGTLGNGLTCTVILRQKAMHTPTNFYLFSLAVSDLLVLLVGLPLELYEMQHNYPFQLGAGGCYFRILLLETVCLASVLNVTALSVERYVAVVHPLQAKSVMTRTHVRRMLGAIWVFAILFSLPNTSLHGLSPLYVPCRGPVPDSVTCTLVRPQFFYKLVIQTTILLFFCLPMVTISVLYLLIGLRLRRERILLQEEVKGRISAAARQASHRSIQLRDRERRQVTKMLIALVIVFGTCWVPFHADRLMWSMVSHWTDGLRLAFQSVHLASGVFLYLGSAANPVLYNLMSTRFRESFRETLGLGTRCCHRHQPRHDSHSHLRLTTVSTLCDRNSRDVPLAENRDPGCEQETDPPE

rat NMUR2 [3] = biological target: T3, rat NMUR2 (rat, UniProt Q9ESQ4 1-395); test: cell-based or functional assay
human NMUR2 [4] = biological target: T4, human NMUR2 (human, UniProt Q9GZQ4 1-415); test: cell-based or functional assay
human NMUR1 [5] = biological target: T5, human NMUR1 (human, UniProt Q9HB89 1-426); test: cell-based or functional assay
T5 sequence (looked up): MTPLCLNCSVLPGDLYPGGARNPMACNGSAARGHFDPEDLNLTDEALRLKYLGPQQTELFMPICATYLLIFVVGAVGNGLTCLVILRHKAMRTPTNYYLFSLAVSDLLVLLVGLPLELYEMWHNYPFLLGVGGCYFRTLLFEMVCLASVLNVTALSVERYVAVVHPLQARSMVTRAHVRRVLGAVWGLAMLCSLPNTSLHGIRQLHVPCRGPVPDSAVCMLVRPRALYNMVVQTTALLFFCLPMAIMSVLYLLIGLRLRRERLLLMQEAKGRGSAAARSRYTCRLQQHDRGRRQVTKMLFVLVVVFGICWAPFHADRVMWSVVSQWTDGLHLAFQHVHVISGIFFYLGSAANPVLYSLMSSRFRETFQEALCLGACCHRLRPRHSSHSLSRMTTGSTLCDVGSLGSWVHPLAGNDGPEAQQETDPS

mouse NMUR2 [6] = biological target: T6, mouse NMUR2 (mouse, UniProt Q8BZ39 1-395); test: cell-based or functional assay
rat NMUR1-ATG [7] = biological target: T1, rat NMUR1-ATG; test: cell-based or functional assay; remark: listed apart in the source
rat NMUR1-TTG [8] = biological target: T2, rat NMUR1-TTG; test: cell-based or functional assay; remark: listed apart in the source
human NMUR2 [9] = biological target: T4, human NMUR2; test: cell-based or functional assay; remark: listed apart in the source
mouse NMUR1-CTG [10] = biological target: T7, mouse NMUR1-CTG (mouse, UniProt O55040 1-428); test: cell-based or functional assay
T7 sequence (looked up): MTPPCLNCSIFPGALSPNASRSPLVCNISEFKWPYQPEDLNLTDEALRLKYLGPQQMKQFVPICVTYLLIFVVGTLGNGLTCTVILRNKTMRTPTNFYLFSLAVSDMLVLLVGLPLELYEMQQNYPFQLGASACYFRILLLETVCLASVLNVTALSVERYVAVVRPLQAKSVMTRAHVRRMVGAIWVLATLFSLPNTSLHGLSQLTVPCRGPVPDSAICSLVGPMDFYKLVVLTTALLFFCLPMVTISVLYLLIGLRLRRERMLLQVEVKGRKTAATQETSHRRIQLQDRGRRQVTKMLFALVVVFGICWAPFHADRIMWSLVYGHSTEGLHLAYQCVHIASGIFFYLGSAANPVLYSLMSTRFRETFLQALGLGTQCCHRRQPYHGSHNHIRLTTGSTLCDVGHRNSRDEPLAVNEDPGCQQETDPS

rat NMUR2 [11] = biological target: T3, rat NMUR2; test: cell-based or functional assay; remark: listed apart in the source
human NMUR1 [12] = biological target: T5, human NMUR1; test: cell-based or functional assay; remark: listed apart in the source
mouse NMUR1-ATG [13] = biological target: T8, mouse NMUR1-ATG (mouse, UniProt O55040 1-428); test: cell-based or functional assay
T8 sequence (looked up): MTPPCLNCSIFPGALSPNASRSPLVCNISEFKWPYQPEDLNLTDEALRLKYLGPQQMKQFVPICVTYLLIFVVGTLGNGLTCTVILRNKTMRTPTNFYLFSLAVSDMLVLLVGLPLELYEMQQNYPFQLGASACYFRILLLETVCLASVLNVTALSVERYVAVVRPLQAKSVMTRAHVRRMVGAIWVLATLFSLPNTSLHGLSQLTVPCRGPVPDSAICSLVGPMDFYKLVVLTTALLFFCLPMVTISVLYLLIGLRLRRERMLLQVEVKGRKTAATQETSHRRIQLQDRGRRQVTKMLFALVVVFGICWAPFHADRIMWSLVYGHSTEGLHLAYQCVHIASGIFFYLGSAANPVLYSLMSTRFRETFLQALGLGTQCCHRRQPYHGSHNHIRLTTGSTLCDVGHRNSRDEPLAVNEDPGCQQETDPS

mouse NMUR2 [14] = biological target: T6, mouse NMUR2; test: cell-based or functional assay; remark: listed apart in the source
mouse NMUR1-CTG [15] = biological target: T7, mouse NMUR1-CTG; test: cell-based or functional assay; remark: listed apart in the source
mouse NMUR1-ATG [16] = biological target: T8, mouse NMUR1-ATG; test: cell-based or functional assay; remark: listed apart in the source
mouse NMUR2 [17] = biological target: T6, mouse NMUR2; test: 125I-hNMU-25 displacement, cell membranes; as to % inhibition of NMU-25 binding: test concentration or dose not given here
rat NMUR1-ATG [18] = biological target: T1, rat NMUR1-ATG; test: 125I-hNMU-25 displacement, cell membranes; as to % inhibition of NMU-25 binding: test concentration or dose not given here
rat NMUR1-TTG [19] = biological target: T2, rat NMUR1-TTG; test: 125I-hNMU-25 displacement, cell membranes; as to % inhibition of NMU-25 binding: test concentration or dose not given here
human NMUR2 [20] = biological target: T4, human NMUR2; test: 125I-hNMU-25 displacement, cell membranes; as to % inhibition of NMU-25 binding: test concentration or dose not given here
mouse NMUR1-CTG [21] = biological target: T7, mouse NMUR1-CTG; test: 125I-hNMU-25 displacement, cell membranes; as to % inhibition of NMU-25 binding: test concentration or dose not given here
rat NMUR2 [22] = biological target: T3, rat NMUR2; test: 125I-hNMU-25 displacement, cell membranes; as to % inhibition of NMU-25 binding: test concentration or dose not given here
human NMUR1 [23] = biological target: T5, human NMUR1; test: 125I-hNMU-25 displacement, cell membranes
mouse NMUR1-ATG [24] = biological target: T8, mouse NMUR1-ATG; test: 125I-hNMU-25 displacement, cell membranes

T4 sequence (Q9GZQ4 whole entry): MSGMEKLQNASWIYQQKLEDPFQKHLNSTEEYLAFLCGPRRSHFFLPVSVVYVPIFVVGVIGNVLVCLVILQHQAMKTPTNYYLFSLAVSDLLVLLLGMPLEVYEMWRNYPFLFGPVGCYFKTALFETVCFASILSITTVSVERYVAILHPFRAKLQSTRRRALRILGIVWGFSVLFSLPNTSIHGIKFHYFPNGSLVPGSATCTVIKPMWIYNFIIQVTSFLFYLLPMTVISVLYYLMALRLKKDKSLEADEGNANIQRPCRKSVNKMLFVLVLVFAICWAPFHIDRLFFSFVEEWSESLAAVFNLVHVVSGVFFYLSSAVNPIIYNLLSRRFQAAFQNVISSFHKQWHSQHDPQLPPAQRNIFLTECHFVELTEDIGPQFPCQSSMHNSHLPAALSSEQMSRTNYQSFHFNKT
T6 sequence (Q8BZ39 whole entry): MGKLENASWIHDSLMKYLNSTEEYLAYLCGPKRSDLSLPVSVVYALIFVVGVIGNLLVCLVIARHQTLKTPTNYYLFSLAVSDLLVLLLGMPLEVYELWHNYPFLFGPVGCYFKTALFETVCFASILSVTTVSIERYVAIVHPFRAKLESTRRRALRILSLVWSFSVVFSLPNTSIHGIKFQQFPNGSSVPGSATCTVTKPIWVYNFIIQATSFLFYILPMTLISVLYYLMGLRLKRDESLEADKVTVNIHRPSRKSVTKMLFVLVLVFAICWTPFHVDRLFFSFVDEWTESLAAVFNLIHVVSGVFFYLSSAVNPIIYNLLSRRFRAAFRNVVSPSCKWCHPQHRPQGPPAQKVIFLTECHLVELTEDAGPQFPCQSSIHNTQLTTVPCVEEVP
T3 sequence (Q9ESQ4 whole entry): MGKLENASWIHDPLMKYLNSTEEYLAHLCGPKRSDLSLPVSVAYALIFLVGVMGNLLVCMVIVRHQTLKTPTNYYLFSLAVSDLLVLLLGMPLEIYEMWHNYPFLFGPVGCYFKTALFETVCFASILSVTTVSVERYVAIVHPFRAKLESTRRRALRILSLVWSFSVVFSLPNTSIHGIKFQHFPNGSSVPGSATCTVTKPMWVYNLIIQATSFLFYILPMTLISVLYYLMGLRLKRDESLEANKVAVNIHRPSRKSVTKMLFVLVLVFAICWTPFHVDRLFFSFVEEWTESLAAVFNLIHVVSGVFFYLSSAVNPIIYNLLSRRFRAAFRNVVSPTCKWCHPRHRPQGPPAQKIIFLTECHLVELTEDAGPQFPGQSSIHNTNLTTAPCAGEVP

B1: NMU13 (peptide)
peptide: Ac-C(Succinimide(1-Et,3-yl))FRVDEEFQSPFASQSRGYF[dA]WRPRN-NH2
SMILES: CCN1C(=O)CC(SC[C@H](NC(C)=O)C(=O)N[C@@H](Cc2ccccc2)C(=O)N[C@@H](CCCNC(=N)N)C(=O)N[C@H](C(=O)N[C@@H](CC(=O)O)C(=O)N[C@@H](CCC(=O)O)C(=O)N[C@@H](CCC(=O)O)C(=O)N[C@@H](Cc2ccccc2)C(=O)N[C@@H](CCC(N)=O)C(=O)N[C@@H](CO)C(=O)N2CCC[C@H]2C(=O)N[C@@H](Cc2ccccc2)C(=O)N[C@@H](C)C(=O)N[C@@H](CO)C(=O)N[C@@H](CCC(N)=O)C(=O)N[C@@H](CO)C(=O)N[C@@H](CCCNC(=N)N)C(=O)NCC(=O)N[C@@H](Cc2ccc(O)cc2)C(=O)N[C@@H](Cc2ccccc2)C(=O)N[C@H](C)C(=O)N[C@@H](Cc2c[nH]c3ccccc23)C(=O)N[C@@H](CCCNC(=N)N)C(=O)N2CCC[C@H]2C(=O)N[C@@H](CCCNC(=N)N)C(=O)N[C@@H](CC(N)=O)C(N)=O)C(C)C)C1=O
notes: also called NMUR1 selective peptide NMU13
B1 was tested, and the “% Activity (FLIPR)” value (rat NMUR1-ATG [1]) was 100%, the “EC50 (FLIPR)” value (rat NMUR1-ATG [1]) was 9.5 nM and the “% Activity (FLIPR)” value (rat NMUR1-TTG [2]) was 94.6%. The “EC50 (FLIPR)” value (rat NMUR1-TTG [2]) was 115 nM, the “% Activity (FLIPR)” value (rat NMUR2 [3]) was 0% and the “EC50 (FLIPR)” value (rat NMUR2 [3]) was greater than 1000 nM. For the same binder, the “% Activity (FLIPR)” value (human NMUR2 [4]) was 0%, the “EC50 (FLIPR)” value (human NMUR2 [4]) was greater than 1000 nM and the “% Activity (FLIPR)” value (human NMUR1 [5]) was 100%. The “EC50 (FLIPR)” value (human NMUR1 [5]) was 4.8 nM, the “% activity” value (mouse NMUR2 [6]) was 27% and the “IC50 (nM), functional” value (mouse NMUR2 [6]) was greater than 1000 nM. The “% activity” value (rat NMUR1-ATG [7]) was 92%, the “IC50 (nM), functional” value (rat NMUR1-ATG [7]) was 15.8 nM and the “% activity” value (rat NMUR1-TTG [8]) was 94%. For the same binder, the “IC50 (nM), functional” value (rat NMUR1-TTG [8]) was 107 nM, the “% activity” value (human NMUR2 [9]) was 0% and the “IC50 (nM), functional” value (human NMUR2 [9]) was greater than 1000 nM. The “% activity” value (mouse NMUR1-CTG [10]) was 88%, the “IC50 (nM), functional” value (mouse NMUR1-CTG [10]) was 14 nM and the “% activity” value (rat NMUR2 [11]) was 24%. The “IC50 (nM), functional” value (rat NMUR2 [11]) was greater than 1000 nM, the “% activity” value (human NMUR1 [12]) was 91% and the “IC50 (nM), functional” value (human NMUR1 [12]) was 1.7 nM. The “% activity” value (mouse NMUR1-ATG [13]) was 96%, the “IC50 (nM), functional” value (mouse NMUR1-ATG [13]) was 7.8 nM and the “% Activity (FLIPR)” value (mouse NMUR2 [14]) was 0%. For the same binder, the “EC50 (FLIPR)” value (mouse NMUR2 [14]) was greater than 1000 nM, the “% Activity (FLIPR)” value (mouse NMUR1-CTG [15]) was 73.6% and the “EC50 (FLIPR)” value (mouse NMUR1-CTG [15]) was 142 nM. The “% Activity (FLIPR)” value (mouse NMUR1-ATG [16]) was 98.6%, the “EC50 (FLIPR)” value (mouse NMUR1-ATG [16]) was 35.8 nM and the “% inhibition of NMU-25 binding” value (mouse NMUR2 [17]) was 30%. For the same binder, the “% inhibition of NMU-25 binding” value (rat NMUR1-ATG [18]) was 100%, the IC50 (rat NMUR1-ATG [18]) was 1.6 nM and the “% inhibition of NMU-25 binding” value (rat NMUR1-TTG [19]) was 100%. For the same binder, the IC50 (rat NMUR1-TTG [19]) was 3.24 nM, the “% inhibition of NMU-25 binding” value (human NMUR2 [20]) was 48% and the “% inhibition of NMU-25 binding” value (mouse NMUR1-CTG [21]) was 100%. For the same binder, the IC50 (mouse NMUR1-CTG [21]) was 3.5 nM, the “% inhibition of NMU-25 binding” value (rat NMUR2 [22]) was 0% and the “% inhibition of NMU-25 binding” value (human NMUR1 [23]) was 100%. For the same binder, the IC50 (human NMUR1 [23]) was 4.3 nM, the “% inhibition of NMU-25 binding” value (mouse NMUR1-ATG [24]) was 100% and the IC50 (mouse NMUR1-ATG [24]) was 5.4 nM.
